Substrate: I
Assay: cells, lysate or membranes
Settings: other: initial velocity rates at 2 min, iodide 1.25 to 250 μM, oocytes 60 h after injection; 37.0 °C

B1: rat sodium/iodide symporter (Rattus norvegicus) (protein)
chain: MEGAEAGARATFGAWDYGVFATMLLVSTGIGLWVGLARGGQRSADDFFTGGRQLAAVPVGLSLAASFMSAVQVLGVPAEAARYGLKFLWMCAGQLLNSLLTAFLFLPIFYRLGLTSTYQYLELRFSRAVRLCGTLQYLVATMLYTGIVIYAPALILNQVTGLDIWASLLSTGIICTLYTTVGGMKAVVWTDVFQVVVMLVGFWVILARGVILLGGPRNVLSLAQNHSRINLMDFDPDPRSRYTFWTFIVGGTLVWLSMYGVNQAQVQRYVACHTEGKAKLALLVNQLGLFLIVASAACCGIVMFVYYKDCDPLLTGRISAPDQYMPLLVLDIFEDLPGVPGLFLACAYSGTLSTASTSINAMAAVTVEDLIKPRMPGLAPRKLVFISKGLSFIYGSACLTVAALSSLLGGGVLQGSFTVMGVISGPLLGAFTLGMLLPACNTPGVLSGLAAGLAVSLWVAVGATLYPPGEQTMGVLPTSAAGCTNDSVLLGPPGATNASNGIPSSGMDTGRPALADTFYAISYLYYGALGTLTTMLCGALISYLTGPTKRSSLGPGLLWWDLARQTASVAPKEDTATLEESLVKGPEDIPAVTKKPPGLKPGAETHPLYLGHDVETNL
  Km: 36 µM

Reference: patent US7320863B2, “Thyroid sodium/iodide symporter and nucleic acid encoding same” (Albert Einstein College of Medicine of Yeshiva University, priority 1996, dated 2008)
